What was measured:
[1] = target: T1, Bacillus anthracis protective antigen, cleaved 63 kD form (PA63) (Bacillus anthracis, UniProt P13423 197-764); assay: ELISA, plate coated with PA63 (FIG. 11)
T1 construct: also called cleaved protective antigen (63 kD); active fragment of PA

[2] = target: T2, Bacillus anthracis protective antigen, full-length 83 kD form (PA83) (Bacillus anthracis, UniProt P13423 30-764); assay: ELISA, plate coated with PA83 (FIG. 11)
T2 construct: mature; also called rPA-83; full length PA 83
T2 sequence (P13423 30-764): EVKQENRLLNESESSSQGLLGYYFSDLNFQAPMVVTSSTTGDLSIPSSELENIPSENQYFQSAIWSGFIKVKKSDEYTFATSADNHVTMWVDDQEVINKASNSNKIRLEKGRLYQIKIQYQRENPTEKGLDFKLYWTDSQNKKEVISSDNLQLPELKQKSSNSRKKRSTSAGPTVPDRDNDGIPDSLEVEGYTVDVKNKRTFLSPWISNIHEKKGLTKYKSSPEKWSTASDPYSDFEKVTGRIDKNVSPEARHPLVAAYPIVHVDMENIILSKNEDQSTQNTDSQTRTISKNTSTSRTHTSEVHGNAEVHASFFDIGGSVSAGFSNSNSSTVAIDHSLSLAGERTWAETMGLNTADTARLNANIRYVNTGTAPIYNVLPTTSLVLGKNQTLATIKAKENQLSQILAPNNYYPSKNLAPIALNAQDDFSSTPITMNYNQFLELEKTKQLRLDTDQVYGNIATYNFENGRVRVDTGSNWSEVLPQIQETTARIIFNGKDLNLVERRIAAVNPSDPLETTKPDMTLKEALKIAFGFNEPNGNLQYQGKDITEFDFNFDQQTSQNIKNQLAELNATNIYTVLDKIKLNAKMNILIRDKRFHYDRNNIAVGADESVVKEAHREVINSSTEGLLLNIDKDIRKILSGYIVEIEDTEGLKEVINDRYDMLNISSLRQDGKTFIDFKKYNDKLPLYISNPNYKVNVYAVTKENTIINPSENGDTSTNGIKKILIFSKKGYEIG

T1 sequence (P13423 197-764 limits assumed): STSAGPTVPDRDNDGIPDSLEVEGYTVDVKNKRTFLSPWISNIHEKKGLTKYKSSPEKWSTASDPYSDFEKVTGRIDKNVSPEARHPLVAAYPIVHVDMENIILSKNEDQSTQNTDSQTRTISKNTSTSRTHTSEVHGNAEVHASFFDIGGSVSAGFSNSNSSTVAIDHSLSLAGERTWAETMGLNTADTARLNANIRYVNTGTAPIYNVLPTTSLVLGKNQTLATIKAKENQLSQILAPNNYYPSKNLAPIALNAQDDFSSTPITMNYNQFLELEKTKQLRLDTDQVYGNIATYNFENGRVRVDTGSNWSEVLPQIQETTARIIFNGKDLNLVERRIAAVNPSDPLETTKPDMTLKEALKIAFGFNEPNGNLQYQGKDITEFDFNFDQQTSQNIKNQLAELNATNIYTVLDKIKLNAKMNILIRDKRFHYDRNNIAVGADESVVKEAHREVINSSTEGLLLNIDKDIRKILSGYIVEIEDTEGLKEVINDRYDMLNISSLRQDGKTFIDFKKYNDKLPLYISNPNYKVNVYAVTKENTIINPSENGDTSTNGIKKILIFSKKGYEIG

Binder	binding result [1]	binding result [2]
human monoclonal antibody 5D5 (antibody, V domains shown, also called HuMab 5D5; 5D5-2E10) VH: QVQLVESGGGVVQPGRSLRLSCAASGFTFSSYGMHWVRQAPGKGLEWVAVIWYDGSNKYYADSVKGRFTISRDNSKNTLYLQMNSLRAEDTAVYYCAREGNRSHYIPFAYWGQGTLVTVSS VL: DIQMTQSPSSLSASVGDRVTITCRASQGISSWLAWYQQKPEKAPKSLIYAASSLQSGVPSRFSGSGSGTDFTLTISSLQPEDFATYYCQQYNSYPRTFGGGTKVEIK	binds	binds
human monoclonal antibody 2H4 (antibody, V domains shown, also called HuMab 2H4) VH: EVHLVESGGGLVQPGGSLRLSCAASGFTFSSYWMSWVRQAPGKGLEWVANINQYGSEKYYVDSVKGRFTISRDNAKNSLYLQMNSLRAEDTAVYYCARDSPYYYGSGSYYRGYWYFDLWGRGTLVTVSS VL: DIQMTQSPSSLSASVGDRVTITCRASQGISSWLAWYQQKPEKAPKSLIYAASSLQSGVPSRFSGSGSGTDFTLTISSLQPEDFATYYCQQYNSYPPTFGQGTRLEIK	binds	binds
human monoclonal antibody 2D5 (antibody, V domains shown, also called HuMab 2D5) VH: QVQLVESGGGVVQPGRSLRLSCAASGFTFSSYGMHWVRQAPGKGLEWVAVIWNDGSNKYYADSVKGRFTISRDNSKNTLYLQMNSLRAEDTAVYYCARENWGEYFDYWGQGTLVTVSS VL: AIQLTQSPSSLSASVGDRVTITCRASQGISSALAWYQQKPGKAPKLLIYDASSLKSGVPSRFSGSGSGTDFTLTISSLQPEDFATYYCQQFNSYWTFGQGTKVEIK	binds	binds

From patent US20050287149A1 (Bristol-Myers Squibb, published 2005)
